{"source": "paper PMC7149228", "molecular_target": "Polyubiquitinated model substrate (lac repressor degron-sfGFP) bearing long ubiquitin chains (E. coli | not stated) (UniProt P0CG48)", "assay": "MST"}
{"substance": "Ddi1 construct containing the HDD and RVP domains (D220N) (domain or fragment)", "values": [{"measurement": "Kd", "value": 100, "unit": "µM"}]}
